Columns and labels:
IL-1R = target: T1, IL-1R (Homo sapiens, UniProt P14778); assay: IL-1R-induced NF-κB activity, luciferase reporter, 293T cells; type: cell-based
T1 construct: expressed in transfected cells; host or cells: 293T cells
T1 sequence (P14778 18-569): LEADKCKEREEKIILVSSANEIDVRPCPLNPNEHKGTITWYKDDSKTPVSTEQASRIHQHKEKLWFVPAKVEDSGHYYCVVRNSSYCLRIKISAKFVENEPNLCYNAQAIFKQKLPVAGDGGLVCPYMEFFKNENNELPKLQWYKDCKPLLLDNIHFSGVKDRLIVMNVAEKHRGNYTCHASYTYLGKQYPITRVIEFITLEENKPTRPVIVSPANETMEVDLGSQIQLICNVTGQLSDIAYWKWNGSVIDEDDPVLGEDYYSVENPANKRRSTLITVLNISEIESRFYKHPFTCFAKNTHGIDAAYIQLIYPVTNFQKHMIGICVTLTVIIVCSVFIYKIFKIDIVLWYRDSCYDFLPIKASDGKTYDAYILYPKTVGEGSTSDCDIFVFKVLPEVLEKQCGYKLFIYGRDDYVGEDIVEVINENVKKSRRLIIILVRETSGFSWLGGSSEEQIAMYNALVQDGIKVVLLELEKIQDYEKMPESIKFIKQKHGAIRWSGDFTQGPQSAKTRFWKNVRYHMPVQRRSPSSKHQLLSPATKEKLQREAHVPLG
T1 sequence (Q9NPH3 21-570 partner): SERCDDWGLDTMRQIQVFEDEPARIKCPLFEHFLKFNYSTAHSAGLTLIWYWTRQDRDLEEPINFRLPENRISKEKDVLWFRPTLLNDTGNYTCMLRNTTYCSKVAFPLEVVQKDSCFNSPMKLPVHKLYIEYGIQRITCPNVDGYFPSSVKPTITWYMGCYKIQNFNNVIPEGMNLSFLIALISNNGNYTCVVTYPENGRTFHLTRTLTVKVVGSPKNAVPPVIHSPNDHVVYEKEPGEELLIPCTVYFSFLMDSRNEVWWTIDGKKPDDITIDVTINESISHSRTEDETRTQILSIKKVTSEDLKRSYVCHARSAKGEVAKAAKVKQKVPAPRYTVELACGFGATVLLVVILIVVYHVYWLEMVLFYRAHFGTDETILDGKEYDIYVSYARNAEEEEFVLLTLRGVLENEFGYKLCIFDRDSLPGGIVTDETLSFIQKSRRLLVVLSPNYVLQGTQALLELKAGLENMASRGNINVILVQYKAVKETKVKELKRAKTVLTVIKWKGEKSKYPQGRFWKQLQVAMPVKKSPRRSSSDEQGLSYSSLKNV
Protocol: Unlike TLR4, neither IL-1R nor TLR9 can induce NF-κB in the absence of MyD88 (Kawai 1999; Schnare 2000; Adache 1998). To assess the possibility that TIRAP is the putative adapter in the MyD88-independent signaling pathway, we tested TIRAP P125H for its ability to inhibit NF-κB activity induced y IL-1R and TLR9. 293T cells were co-transfected with either vector alone (pcDNA3), IL-1R (0.1 μg), and IL-1R AcP (0.1 μg) [Dr. Medzhitov: Please indicate what the IL-1R AcP construct encodes] plasmid cDNAs, with or without increasing concentrations (10 ng, 50 ng, 200 ng) of TIRAP P125H plasmid and the NF-κB-dependent luciferase reporter gene.

TLR9 = target: T2, TLR9 (Homo sapiens, UniProt Q9NR96); assay: NF-κB activation by CpG stimulation of TLR9-transfected 293T cells; type: cell-based; conditions: 100 ng, 250 ng construct, CpG 3 μM
T2 construct: TLR9 (encodes full length TLR9); expressed in transfected cells; host or cells: 293T cells
T2 sequence (Q9NR96 26-1032): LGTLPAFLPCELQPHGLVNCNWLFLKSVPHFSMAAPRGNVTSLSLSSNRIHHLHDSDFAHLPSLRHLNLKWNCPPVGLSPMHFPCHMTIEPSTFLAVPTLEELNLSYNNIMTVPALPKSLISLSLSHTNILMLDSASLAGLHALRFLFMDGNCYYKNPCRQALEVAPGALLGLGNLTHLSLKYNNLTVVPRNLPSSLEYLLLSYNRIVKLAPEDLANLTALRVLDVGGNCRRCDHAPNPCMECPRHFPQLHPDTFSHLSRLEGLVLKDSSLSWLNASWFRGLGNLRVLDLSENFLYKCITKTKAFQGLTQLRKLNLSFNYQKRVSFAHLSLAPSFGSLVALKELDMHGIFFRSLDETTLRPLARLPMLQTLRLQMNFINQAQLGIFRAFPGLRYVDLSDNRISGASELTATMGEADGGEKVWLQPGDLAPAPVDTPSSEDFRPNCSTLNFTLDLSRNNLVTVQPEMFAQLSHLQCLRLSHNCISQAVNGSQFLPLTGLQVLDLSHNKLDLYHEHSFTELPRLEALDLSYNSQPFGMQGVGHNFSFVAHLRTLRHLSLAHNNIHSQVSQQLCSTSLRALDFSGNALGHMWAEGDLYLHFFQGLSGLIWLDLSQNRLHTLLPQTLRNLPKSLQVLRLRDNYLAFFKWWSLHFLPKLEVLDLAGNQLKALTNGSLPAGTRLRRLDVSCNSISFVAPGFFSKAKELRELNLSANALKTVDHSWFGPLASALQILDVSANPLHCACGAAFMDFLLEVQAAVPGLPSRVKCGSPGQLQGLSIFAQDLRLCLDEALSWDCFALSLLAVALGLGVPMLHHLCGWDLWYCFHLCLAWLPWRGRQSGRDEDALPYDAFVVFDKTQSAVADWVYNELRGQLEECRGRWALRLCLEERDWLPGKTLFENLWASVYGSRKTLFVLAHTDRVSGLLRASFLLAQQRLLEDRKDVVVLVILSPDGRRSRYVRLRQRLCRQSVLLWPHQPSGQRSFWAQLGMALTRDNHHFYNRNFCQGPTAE
Protocol: To determine whether TIRAP inhibits NF-κB activation induced by CpG-stimulation of TLR9-transfected cells, 293T cells were transfected with vector alone (pcDNA3), TLR9 (50 ng), with or without increasing concentrations (100 ng, 250 ng) of either TIRAP P125H or MyD88 DN. At twenty-four h post transfection, CpG oligonucleotides were added at 3 μM final concentration to TLR9-transfected samples and incubated for 14 more hours before harvesting. […] Thus, TIRAP appears to function downstream of TLR4 but not IL-1R or TLR9, and is likely to be the adapter in the MyD88-independent pathway downstream of TLR4.

TIRAP P125H: vector encoding a mutant form of TIRAP containing a proline to histidine mutation at amino acid position 125
did not inhibit: inhibition of NF-κB activity induced by IL-1B cytokine (IL-1R) | inhibition of NF-κB activity induced by co-transfected IL-1R and IL-1R AcP (IL-1R; 293T cells, 10 ng, 50 ng, 200 ng plasmid) | inhibition of NF-κB activation induced by CpG-stimulation of TLR9-transfected cells (TLR9)
